Data: PMC10715212

Biological target: Strep-tag II-tagged VgrG spike protein of EAEC T6SS-1 (enteroaggregative Escherichia coli (EAEC) 17-2)
Assay: cryo-EM structure; single particle cryo-EM of the co-produced, double-affinity and SEC purified PAAR^FL-^SVgrG-Tle1^H complex; AlphaFold2 model plus PDB 6SJL docked into the maps

## Strep-tag II-tagged VgrG spike protein of EAEC T6SS-1 (natural protein)
  stoichiometry N: 3
